Measurements as given in paper PMC6677536 (2019).

What follows are substances tested against Full-length Panx, HA-tagged (UniProt Q9W2H9) (assay: FLAG-tag co-immunoprecipitation, western blot quantification). Settings: lysates of transfected S2 cells; parent: est. 0; read off a plot.
Chain of Full-length Panx, HA-tagged (Q9W2H9 whole entry): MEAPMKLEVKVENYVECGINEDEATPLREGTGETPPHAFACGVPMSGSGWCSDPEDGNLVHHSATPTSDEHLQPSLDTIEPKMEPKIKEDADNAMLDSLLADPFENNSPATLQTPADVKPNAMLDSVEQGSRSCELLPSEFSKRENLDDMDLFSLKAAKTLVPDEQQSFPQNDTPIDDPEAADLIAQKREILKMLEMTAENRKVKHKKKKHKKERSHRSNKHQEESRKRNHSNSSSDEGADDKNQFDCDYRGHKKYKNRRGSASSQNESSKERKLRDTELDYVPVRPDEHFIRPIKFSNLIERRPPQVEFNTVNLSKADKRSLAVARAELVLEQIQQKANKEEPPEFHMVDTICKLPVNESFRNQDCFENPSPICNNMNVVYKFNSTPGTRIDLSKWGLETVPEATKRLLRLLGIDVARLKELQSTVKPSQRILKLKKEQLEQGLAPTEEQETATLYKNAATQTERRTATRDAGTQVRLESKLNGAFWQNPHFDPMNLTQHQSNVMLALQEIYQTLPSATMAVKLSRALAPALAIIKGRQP

Chain of Full-length Nxf2, 3xFLAG-tagged (from UniProt Q9VV73) aa755-758 (NTF2 mut.3) (Q9VV73 whole entry, change not shown, the tested form may be a part): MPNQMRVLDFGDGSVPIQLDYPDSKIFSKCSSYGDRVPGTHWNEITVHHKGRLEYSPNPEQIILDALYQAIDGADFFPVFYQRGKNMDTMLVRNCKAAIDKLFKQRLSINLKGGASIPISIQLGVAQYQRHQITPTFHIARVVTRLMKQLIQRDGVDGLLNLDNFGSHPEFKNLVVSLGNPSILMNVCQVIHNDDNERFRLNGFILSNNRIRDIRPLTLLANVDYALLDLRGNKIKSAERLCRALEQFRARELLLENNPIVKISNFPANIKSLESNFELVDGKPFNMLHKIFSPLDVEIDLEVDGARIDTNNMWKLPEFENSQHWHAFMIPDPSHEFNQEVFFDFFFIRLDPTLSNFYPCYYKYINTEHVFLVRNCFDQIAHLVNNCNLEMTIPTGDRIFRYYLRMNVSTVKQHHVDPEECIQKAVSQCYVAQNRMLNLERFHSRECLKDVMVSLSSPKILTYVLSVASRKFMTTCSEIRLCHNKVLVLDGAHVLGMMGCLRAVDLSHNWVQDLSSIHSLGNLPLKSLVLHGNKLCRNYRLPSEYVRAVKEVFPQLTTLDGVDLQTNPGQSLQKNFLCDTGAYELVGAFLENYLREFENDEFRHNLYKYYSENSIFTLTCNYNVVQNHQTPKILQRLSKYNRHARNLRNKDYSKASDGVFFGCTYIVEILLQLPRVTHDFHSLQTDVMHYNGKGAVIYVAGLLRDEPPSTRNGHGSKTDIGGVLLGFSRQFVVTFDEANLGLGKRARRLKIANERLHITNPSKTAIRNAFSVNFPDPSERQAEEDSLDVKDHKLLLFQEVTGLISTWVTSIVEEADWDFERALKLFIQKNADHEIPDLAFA
Chain of Full-length Nxf2, 3xFLAG-tagged (from UniProt Q9VV73) aa754-756 (NTF2 mut.2) (Q9VV73 whole entry, change not shown, the tested form may be a part): as above
Chain of Full-length Nxf2, 3xFLAG-tagged (from UniProt Q9VV73) aa751-754 (NTF2 mut.1) (Q9VV73 whole entry, change not shown, the tested form may be a part): as above
Chain of Full-length Nxf2, 3xFLAG-tagged (from UniProt Q9VV73) aa811-814 (UBA mut.1) (Q9VV73 whole entry, change not shown, the tested form may be a part): as above
Chain of Full-length Nxf2, 3xFLAG-tagged (from UniProt Q9VV73) aa835-836 (UBA mut.2) (Q9VV73 whole entry, change not shown, the tested form may be a part): as above

Substance | log10 ratio (log10 coIP index [arbitrary unit])
Full-length Nxf2, 3xFLAG-tagged (from UniProt Q9VV73) aa751-754 (NTF2 mut.1) | -0.55
Full-length Nxf2, 3xFLAG-tagged (from UniProt Q9VV73) aa754-756 (NTF2 mut.2) | -0.32
Full-length Nxf2, 3xFLAG-tagged (from UniProt Q9VV73) aa755-758 (NTF2 mut.3) | -0.3
Full-length Nxf2, 3xFLAG-tagged (from UniProt Q9VV73) aa811-814 (UBA mut.1) | -1.3
Full-length Nxf2, 3xFLAG-tagged (from UniProt Q9VV73) aa835-836 (UBA mut.2) | -0.5
